According to the DeepSol protein solubility set:

Assay: soluble on expression in E. coli; label from the status in PepcDB or PDB records

Row | Sequence | soluble on expression in E. coli
1 | MGSDKIHHHHHHMQLSKAAEMCYEITNSYLHIDQKSQIIASTQEAIRLTRKYLLSEIFVRWSPLNGEISFSYNGGKDCQVLLLLYLSCLWEYFFIKAQNSQFDFEFQSFPMQRLPTVFIDQEETFPTLENFVLETSERYCLSLYESQRQSGASVNMADAFRDFIKIYPETEAIVIGIRHTDPFGEALKPIQRTDSNWPDFMRLQPLLHWDLTNIWSFLLYSNEPICGLYGKGFTSIGGINNSLPNPHLRKDSNNPALHFEWEIIHAFGKDAEGERSSAINTSPISVVDKERFSKYHDNYYPGWYLVDDTLERAGRIKN | not soluble
2 | GSHMNLKEQLCFSLYNAQRQVNRYYSNKVFKKYNLTYPQFLVLTILWDESPVNVKKVVTELALDTGTVSPLLKRMEQVDLIKRERSEVDQREVFIHLTDKSETIRPELSNASDKVASASSLSQDEVKELNRLLGKVIHAFDE | soluble
3 | MSTKLYYIYDPMCSWCWGYRPVWDLLQQHLPKSIDVEYVAGGLAPDSDSAMPIDQQQMIQNHWRTIEQKLGTKFNYDFWRENTARRSTYNACRAAIAAHKQSCQKAMIDAIQQAYYLRALNPSDVDVLVSVAKELSEQTSPTLDVAQFIVDINSSETNKELAKQVTLARELTQQGFPSLVLDVDGVIQQIPLDYSDYKTTLAYIIKKTS | not soluble
4 | MGSDKIHHHHHHMILKRISILNYKNLEQVEIGFSAKLNCFFGQNGMGKTNLLDAVYFLSFCKSSGNPIDSQNIRHEQDFFVIQGFYEAEDGTPEEIYCGMKRRSKKQFKRNKKEYSRFSDHIGFLPLVMVSPADSELIAGGSDERRRFMDVVISQYDKEYLEALIRYNKALAQRNTLLKSEFPVEEELFLVWEEMMAQAGEIVFRKREAFIEEFIPIFQSFYSFISQDKEQVGLSYDSHARDASLLEVLKQSRERDKIMGFSLRGIHKDELNMLLGDFPIKKEGSQGQNKTYLVALKLAQFDFLKRTGQTVPLLLLDDIFDKLDASRVEQIVKLVAGDNFGQIFITDTNREHLDRILQKVGSDYKVFRVDQGVINEMGAEQ | not soluble
5 | MGHHHHHHSHEVFKNAQPPIRDATDLRENMQNAVVSFKELCGLSSVANLMQCMLAVSPRFLGPDNTPLVVLNLSEQYPTMELQGIVPEVLKKIVTTYDMMIQSLKALIENADAVYEKIVHCQKAAMEFHEHLHSIGTKEGLKERKLQKAVESFTWNITILKGQADLLKYAKNETLENLKQIHFAAVSCGLNKPGTENADVQKPRRSLEVIPEKANDETGE | not soluble
6 | MRGSHHHHHHGSAPIKVGDAIPAVEVFEGEPGNKVNLAELFKGKKGVLFGVPGAFTPGCSKTHLPGFVEQAEALKAKGVQVVASLSVNDAFVTGEWGRAHKAEGKVRLLADPTGAFGKETDLLLDDSLVSIFGNRRLKRFSMVVQDGIVKALNVEPDGTGLTCSLAPNIISQL | soluble
7 | MNDFNTAFANIDEKAIPNDEKGAANGVATLNSSGKLAQMPSASDVGALPITGGEMQGALKLKANQYGGSGPADEKYALDCQNSNIVNVNRILTADPAGSASEGWGFQREDDPDAYDVIWASNGTLYFTPGFKYNTPPYPANQRVLATTDNIALTNYLRQEYNKLKESEGTPTLNDIINGFGFCYNDSSNGAGLDGTYLTVSGMLDNKYRLQLLGQYNGSNWLAYRTRNGDEQSWNPWHKVLTDNINAAISARHQYTSSSYPQIYGNGILQLGGDSRNEYGVVLRSNGTDEANAFRPSVNAGTTGHLYLGVANQKWRAVFAQNGTIQTSDRNAKHDITDLDPEKITAFIMGLKPSSYVFNDADSGRTHWGLISQDIEELFPQLGMTSMDFAGFIKSPKTEDYYEDVPETVTDEETGEEKTVTRKELKTRTVEGEYIYSLRYDEFLEHHHHHH | soluble
8 | AHHHHHHGSIIIYTTFPTWESAEKVTKALLEERLVACANLREHKAFYWWQGKIEEDNEIGVILKTREDLWEEVKKRIKELHPYTVPAIIKINVEDVNEEYLKWLLEETKST | not soluble
9 | MDFQIEEDRLGMRIQSETIELTKDEKGVVGISIGGGGPYCPCVYVVQVFDKSPAFKDGRIRCGDEIVAINGITVKGERKSAVAQLIQVSLNPVKITINKLEEANTKGKTLDILIKKVKHKVVEFVDQDSADALGLSRAILTNDPLAEKEKILEENAEFYRHLVAYFGDMFQYQQKISECQKEFGSIFCDLAAHEKQQTANEAFSSFGDKHRMIAKKQSESAVPLQKMVSDLQVYIDHVVPDTRLTIKKYLDVKYEYLSYCLKLKEMDDEEVEFVAIQEPLYRVETGNYEYRVMLRCRQECRARFMKMRDDVMVKIELLDQKHVRDIAQHLAIFAKTMAKCQQECAEILKERIDVPIEIDLEQLNLNMNTSDGKANGEEEMGQDAIVLNDNPLEGDLIDVNDIGSSTEFNEPRISLRRDSQNDTSQPLLGAPDSPLEELSLIDIS | not soluble
10 | MSLKDKILTIDVGTGSTRAAIVRIDGAMIGFAQREYEQTTPRAGWSEQAPSLWWQAACDCIREVLYRYPETAAQIAVIGACGQMHGTVLLDDRGELVEDRALLWNDKRSQPQVDAFNAREGWEKWLAHLNNPPAAAWPAFKLAWWRENHPDRWSQLAKVLMPKDYINFMLTGAMATDYSEASCYFLMDSETRSWSSQACETFGLRVDQLPELKLSSDIIGQVTQPAADLTGLPAGIPVVAGTSDMAASLLGSGVYEPGMASDSTGTSTLMTVVSPRPLHHPLVNNLHLANAAWGGFTILDAGGDAVRWARLALADNQITHPQLLQEAAAVPAGAEGLLFLPYLTGERLAEHTNSRAQFFGLQRKHRRGHLFRAVLEGVAFASWRNLRQLQKCGQYPQQMIASGGGARSSLWLEIKASAYNLPILSTRNQENGVTGCGIIAGVGVGLYADFASGVRQTVQFEKLISPDPLLRDYYHACCELFDTLYRQSAALYDRLDALSEGHHHHHH | soluble
11 | MGMDQSRLMSGAAGGALVLMGLKKRGVLGLLMTVGGGYLAYKAATGKDPVMEAAGLTGSAGAAKPIFVEHSIVIDRPAQQVYDYWRKLENLPQIMSHLESVTVLDDKRSRWVAKAPLGTHVEWEAEVVNDKPGERIGWHSLPGATVDNAGSVQFESLPDDKTRVHVALSYRPPAGPLGAAVAKLFGEEPSQQIAEDLQKFKATFEGLEHHHHHH | soluble
12 | MEGVMGQVEKRPISTIVFIVAMQKEAQPLINRLRLVEEVNTPFPKEVTWIMFKGMYKDLNINIVCPGKDSTLGVESVGTVPASLVTYASILAIQPDLIINAGTAGGFKAKGACISDVYVVSTVAFHDRRIPVPVLDIYGVGMRNTFPTPNLIKELNLKVGRLSTGDSMDMSPHDEESITANDATVKDMEGAAVAYVADIFKVPTILIKGVTDIVDGNRPTSEEFLENLAAVTAKLDESLTKVIDFISGKCLSDL | soluble
13 | MDNKLSKIPTETFGEYIKRIRELRGYSQRKLSTLSDLSNTTICRIEKGSENGIENPDAETVVKLAEGLKLEKKALLIAAGYLDNENVEETTDLKECIRIALQKLGWINSYNDINEETITYVEFLLKKYGNKYKQIP | not soluble
14 | MFAKVHPAEDVKSGNTGSCHDLVRYLEKETGEGQRFFSHTEQDISPERVIMDIDGNKKALGANDAKFFMLSLNPSQSEQMHLIGRKVDDFKELTPQEKKEVFQKLEAFTRSAMDEYALNFGRDNIRGGQDLMYYARVETERSYHPEDEEVKQGIARIGEPKPGLNLHVHVIVSRKSLDGKVKLSPGAKSAGNTWELEGRGTVKRGFSHEGWKVRVQECFNRKFDYQA | not soluble
15 | MAGMNTENENRVEALEVRLAFQDELLDALNATVARQQKEIDLLQQQIRLLYQQFRNAQPDDAPGGSLRDDIPPHY | not soluble
16 | MGSDKIHHHHHHASHYLLLGGSGWDKIAIVNKNTKEIEWEHPLEKGWECNSVAVTPDRNILFSYSKGAKLITRDHEEVWNISAPEGCEMQTARVLPNGNYLLAWCGYPATIMEVNAKGEILSKTDFDTHIEQPHAQFRQVNKNKQGNYLVPLFATSEIREISPSGQLLKSVKVDGNPFSVAALDNGNYLVACGDAHCFIELNFETGDIVRKVNENDIEGAQLFFVAQLLPKRDGGLYICNWQGHDGEAAKGHYPQLIEINGAGKMVWDLNDNATFGMISSICPID | not soluble
17 | MTGSQKLILTGRPFLHHQGIINQVSTVTKVIHHELEVAASADDIWTVYSWPGLAKHLPDLLPGAFEKLEIIGDGGVGTILDMTFVPGEFPHEYKEKFILVDNEHRLKKVQMIEGGYLDLGVTYYMDTIHVVPTGKDSCVIKSSTEYHVKPEFVKIVEPLITTGPLAAMADAISKLVLEHKSKSNSDEIEAAIITVHHHHHH | soluble
18 | MFYGGIDVAKYRHEICIVDESGNVILQIFVDNTRNGLDKLIHNLKRLEIEVSNVEFCLEATGHYWLSLYYHLTELGYKIHVINPIQSDALRNFYVRKTKTDRKDAHLLADIVRFGHISETKLASETVLKLQNLSRLRFEFVRQVGGLKNRVLGILDRIFPEYPQCFSNVFINTSRELLKSFTAPEDLAEADLSELTDFLNKHSRGRLGVDRAKQIQALAKGTFGINIALDAFTLELRLLVEQIEFIEEQISVIEEAIDQVMEEMRPSKDTAYRHVLETIPGIGPVLAASIIGEIGDINRFPNAKALVAYAGLDATVRSSGQFEGTRNRISKRGSPVLRHSIWLAAVSARRFNPEMKEFFEKKRSEGKHTLVATGAVARRMVHLIYSLWKDNRPFDPNYQWSPTNSR | not soluble
19 | MGSDKIHHHHHHMGRLFYKPENAWVGDLIPYYENGTYYGFYLHDPRIRDKEYAEDTTWHLIETKDFVNLDYKGESIARGGIHDANKNAYTGSVIKCEKDGLYHVFYTAYNEDFKLRGKTIQSVMQATGKNLENLETVKDFLFVSDGKQYEEFDWRDPFVFWNDEDQCYYMLLASRVTNRGDLRGGCIALCKSEDLINWTYEKPFYDPKMYITMECPELFKMGEYWYLVFSTFSDQFTTHYRISKNWNGPWEIPDDDVFDTRADYAIKTASDGKRRFAFGWIASKYGNTDFGPWEWGGTMNFHEIIQNSKNGELRIKAIPEVLDYFSKEIELKKETLYNCKMVQAQDGVSVESDTLGALLYPLEGDTFALDMVIKPERYHEFGIALHVDKELETGYFLRMNPKNQLVAWDMWPRGEQGRYQWQIKGDVPYQIETARKLPKAEEYRVHIIKEKDICVVYINDEIVLSTRMYNHKDGYAGIYVVQGDVKLIQYKEKRSE | not soluble
20 | MSKIRVHEYAKKHNISSKDLMTKLKEMNIEVSNHMTMLDDEVVNKLDNEYQAEKPSVADEFEVEEKVVRSKKNSNKKKKKGKGNEDKRQENFAGRQQTQTVETPDKITFSGSLTVGDLAKKLSKEPSEIIKKLFMLGIMATINQDLDKDTIELIANDYGIEVEEEVIVSETEFETFIDEQDDEENLKERPAVVTIMGHVDHGKTTLLDSIRNSKVTAGEAGGITQHIGAYQVELNDKKITFLDTPGHAAFTTMRARGAQVTDITIIVVAADDGVMPQTVEAINHAKAAGVPIIVAVNKMDKPAANPDRVMQELTEYELVPEAWGGDTIFVPISAIQGEGIDNLLEMILLISEVEEYKANPNRYATGTVIEAQLDKGKGTIATLLVQNGTLRVGDPIVVGTSFGRVRAMVSDIGRRVKVAGPSTPVEITGLNEVPQAGDRFMAFADEKKARQIGESRAQEALLAQRGEKSKLSLEDLFQQIQEGDVKEINLIVKADVQGSVEAMAASLRKIDVEGVKVKIIHTGVGAITESDIILASASNAIVIGFNVRPDVNAKRTAELENVDIRLHRIIYKVIEEIEAAMQGMLDPEFEEKVIGQAEVRQTFKVTKVGTIAGCYVTDGKITRDSGVRIIRDGVVIFEGQLDTLKRFKDDVKEVAQNYECGITIERYNDLKEGDIIEAYIMEEVKR | not soluble
21 | GSHMSNAKTKLGITKYSIVTNSNDSVTLRLMTEHDLAMLYEWLNRSHIVEWWGGEEARPTLADVQEQYLPSVLAQESVTPYIAMLNGEPIGYAQSYVALGSGDGWWEEETDPGVRGIDQLLANASQLGKGLGTKLVRALVELLFNDPEVTKIQTDPSPSNLRAIRCYEKAGFERQGTVTTPDGPAVYMVQTRQAFERTRSDA | soluble
